Results from paper PMC11672532.

Molecular target: c-Met ((A549 lung cancer cells)) (UniProt P08581)
Experiment: flow cytometry on cells
Conditions: 5' and 3' cholesterol on ASO strand; Intact A549 or HeLa cells, FAM-labeled DNA, flow cytometry (30 min in Fig S8); binding buffer and temperature not given in the material

c-Met ((A549 lung cancer cells)), sequence (P08581 25-1390): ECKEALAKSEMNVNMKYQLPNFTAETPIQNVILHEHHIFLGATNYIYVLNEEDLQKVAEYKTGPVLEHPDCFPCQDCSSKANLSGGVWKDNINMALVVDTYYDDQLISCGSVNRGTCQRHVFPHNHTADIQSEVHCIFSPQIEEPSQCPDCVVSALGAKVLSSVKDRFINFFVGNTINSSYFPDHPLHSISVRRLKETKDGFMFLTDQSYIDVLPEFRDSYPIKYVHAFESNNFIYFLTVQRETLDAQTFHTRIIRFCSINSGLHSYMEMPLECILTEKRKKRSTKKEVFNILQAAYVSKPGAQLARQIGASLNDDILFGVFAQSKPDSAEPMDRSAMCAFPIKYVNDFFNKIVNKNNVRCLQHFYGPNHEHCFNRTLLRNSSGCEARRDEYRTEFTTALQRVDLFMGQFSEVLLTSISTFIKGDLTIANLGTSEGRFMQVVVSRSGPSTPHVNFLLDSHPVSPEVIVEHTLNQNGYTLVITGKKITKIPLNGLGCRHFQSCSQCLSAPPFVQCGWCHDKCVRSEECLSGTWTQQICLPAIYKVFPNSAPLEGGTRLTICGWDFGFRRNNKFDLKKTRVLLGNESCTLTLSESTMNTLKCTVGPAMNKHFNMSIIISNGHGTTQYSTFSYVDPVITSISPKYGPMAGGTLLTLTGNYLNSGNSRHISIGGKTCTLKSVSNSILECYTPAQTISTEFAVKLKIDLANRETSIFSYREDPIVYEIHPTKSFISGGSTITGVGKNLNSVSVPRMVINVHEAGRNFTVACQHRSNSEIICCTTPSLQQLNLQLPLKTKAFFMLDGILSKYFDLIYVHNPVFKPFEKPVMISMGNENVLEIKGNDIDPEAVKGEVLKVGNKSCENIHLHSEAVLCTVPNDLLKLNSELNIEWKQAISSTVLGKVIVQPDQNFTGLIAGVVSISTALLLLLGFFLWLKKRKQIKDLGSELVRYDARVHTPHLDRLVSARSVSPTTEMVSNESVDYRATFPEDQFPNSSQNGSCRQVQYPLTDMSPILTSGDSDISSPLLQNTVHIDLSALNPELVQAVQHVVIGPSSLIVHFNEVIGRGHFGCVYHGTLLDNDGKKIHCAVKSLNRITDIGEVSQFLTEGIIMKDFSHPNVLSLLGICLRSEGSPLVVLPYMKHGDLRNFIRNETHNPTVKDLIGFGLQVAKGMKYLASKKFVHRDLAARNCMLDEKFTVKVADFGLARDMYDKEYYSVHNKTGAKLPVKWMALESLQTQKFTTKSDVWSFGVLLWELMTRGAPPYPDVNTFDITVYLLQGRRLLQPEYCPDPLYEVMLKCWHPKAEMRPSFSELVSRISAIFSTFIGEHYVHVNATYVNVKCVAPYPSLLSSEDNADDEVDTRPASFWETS

## TGGATGGTAGCTCGGTCGGGGTGGGTGGGTTGGCAAGTCT / GGTGTCACAGGCGGGACCCCCGACCGA / GTCCCGCCTGTGACACCTCCCGCCTGTGACATGCATTTTTTTTCCCGCCTGTGACATGCATTGTCCCGCCTGTGACACC / CAACCCACCCGGTGTCACAGGCGGGAC [NT-Ch2-Apt (DNA nanotweezer)]
  binding signal (fold (A549 / HeLa fluorescence)): 2.5
